Laboratory results as given in patent US20060084791A1.
Values joined by “and” are separate entries in the source; they are usually repeats but may differ in a detail not shown here. Equal entries are not always repeated.

Legend:
Assay in all cases: cell-based or functional assay
[1] = biological target: ecotropic receptor mCAT-1 (UniProt Q09143)
[2] = biological target: polytropic/xenotropic receptor encoded by the Rmc1 locus of the NIH Swiss inbred NFS/N mouse (mouse (NIH Swiss; NIH 3T3 cells)) (UniProt Q9Z0U0)
[3] = biological target: human polytropic/xenotropic receptor encoded by the human RMC1 locus (human) (UniProt Q9UBH6)
Chain of human polytropic/xenotropic receptor encoded by the human RMC1 locus (human) (Q9UBH6 whole entry): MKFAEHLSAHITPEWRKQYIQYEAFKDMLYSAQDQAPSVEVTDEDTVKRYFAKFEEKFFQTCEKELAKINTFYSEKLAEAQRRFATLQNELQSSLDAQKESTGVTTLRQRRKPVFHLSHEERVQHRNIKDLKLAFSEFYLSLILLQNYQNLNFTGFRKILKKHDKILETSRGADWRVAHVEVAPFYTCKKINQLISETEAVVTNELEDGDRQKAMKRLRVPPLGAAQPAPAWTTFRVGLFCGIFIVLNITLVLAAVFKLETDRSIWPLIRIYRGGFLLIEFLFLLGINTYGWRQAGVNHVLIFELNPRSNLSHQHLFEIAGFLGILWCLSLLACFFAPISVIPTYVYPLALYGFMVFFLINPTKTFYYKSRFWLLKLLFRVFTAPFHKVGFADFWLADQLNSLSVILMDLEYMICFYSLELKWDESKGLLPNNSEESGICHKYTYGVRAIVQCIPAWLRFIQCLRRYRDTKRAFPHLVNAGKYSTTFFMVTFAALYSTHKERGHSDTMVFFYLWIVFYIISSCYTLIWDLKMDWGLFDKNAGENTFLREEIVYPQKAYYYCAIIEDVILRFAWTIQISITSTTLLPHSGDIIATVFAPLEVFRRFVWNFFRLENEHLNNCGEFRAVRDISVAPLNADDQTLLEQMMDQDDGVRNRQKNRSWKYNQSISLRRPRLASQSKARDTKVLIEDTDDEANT

Chain of polytropic/xenotropic receptor encoded by the Rmc1 locus of the NIH Swiss inbred NFS/N mouse (mouse (NIH Swiss; NIH 3T3 cells)) (Q9Z0U0 whole entry): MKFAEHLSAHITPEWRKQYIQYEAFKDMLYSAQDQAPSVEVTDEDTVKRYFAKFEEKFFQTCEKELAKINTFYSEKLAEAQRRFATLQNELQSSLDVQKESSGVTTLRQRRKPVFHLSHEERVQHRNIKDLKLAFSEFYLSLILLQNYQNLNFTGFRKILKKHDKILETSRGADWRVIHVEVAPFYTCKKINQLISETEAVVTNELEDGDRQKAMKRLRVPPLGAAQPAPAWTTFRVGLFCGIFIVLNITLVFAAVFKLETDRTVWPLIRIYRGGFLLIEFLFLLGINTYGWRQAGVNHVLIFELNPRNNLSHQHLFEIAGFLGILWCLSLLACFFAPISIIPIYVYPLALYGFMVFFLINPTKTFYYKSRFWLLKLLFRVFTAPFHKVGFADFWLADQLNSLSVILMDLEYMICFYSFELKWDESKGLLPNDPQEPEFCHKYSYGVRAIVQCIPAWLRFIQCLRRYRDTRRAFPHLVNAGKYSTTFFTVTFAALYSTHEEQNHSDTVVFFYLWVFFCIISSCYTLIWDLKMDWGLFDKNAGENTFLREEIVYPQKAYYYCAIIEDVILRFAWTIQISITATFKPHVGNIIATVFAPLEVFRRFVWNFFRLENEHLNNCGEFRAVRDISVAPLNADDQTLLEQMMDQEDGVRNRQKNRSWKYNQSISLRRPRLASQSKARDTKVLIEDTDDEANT
Chain of ecotropic receptor mCAT-1 (Q09143 whole entry): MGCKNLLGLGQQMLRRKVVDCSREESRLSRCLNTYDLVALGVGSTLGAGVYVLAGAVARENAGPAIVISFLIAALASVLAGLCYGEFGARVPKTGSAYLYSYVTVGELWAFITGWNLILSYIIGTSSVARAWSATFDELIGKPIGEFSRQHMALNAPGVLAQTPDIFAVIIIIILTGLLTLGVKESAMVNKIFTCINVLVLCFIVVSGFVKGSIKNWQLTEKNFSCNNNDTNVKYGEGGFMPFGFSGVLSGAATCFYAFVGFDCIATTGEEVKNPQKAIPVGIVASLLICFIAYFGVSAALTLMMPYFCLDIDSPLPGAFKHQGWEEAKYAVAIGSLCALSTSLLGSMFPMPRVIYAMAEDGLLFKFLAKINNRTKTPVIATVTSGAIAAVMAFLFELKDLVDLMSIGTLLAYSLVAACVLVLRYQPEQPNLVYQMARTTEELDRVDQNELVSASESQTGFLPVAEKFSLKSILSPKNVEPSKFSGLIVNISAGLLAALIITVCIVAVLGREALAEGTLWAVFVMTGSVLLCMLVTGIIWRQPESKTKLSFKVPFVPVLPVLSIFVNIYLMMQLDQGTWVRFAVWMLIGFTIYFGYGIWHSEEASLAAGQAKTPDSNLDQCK

Q: With “Akv MLV envelope protein (ecotropic envelope) (from UniProt P03386 32-669)” as the substance, how does the fold lowering of titer on PSI-2 cells against NIH 3T3 cells [1] read?
A: 10000 fold

Q: And the titer of mini-virus on HeLa mCAT cells [1]?
A: 50000 cfu/mL and 30000 cfu/mL

Q: And the titer of mini-virus on NIH3T3 cells [1]?
A: 1.6e+06 cfu/mL and 800000 cfu/mL

Q: And the titer of mini-virus on PSI-2 cells (ecotropic receptor blocked by ecotropic envelope) [1]?
A: 170 cfu/mL and 120 cfu/mL

Q: With “MCF 247 envelope protein (polytropic MLV MCF-247)” as the substance, how does the titer on NIH 3T3 (murine) cells [2] read?
A: 4.8e+06 c.f.u./ml

Q: What about the Titer on 293 cells [3] of the same substance?
A: 2400 c.f.u./ml

Q: And the Titer on Human HeLa cells [3]?
A: 2 c.f.u./ml

Q: And the Titer on TE 671 cells transfected with MCF 247 (receptor blocked by MCF 247 envelope) [3]?
A: 16 c.f.u./ml

Q: What about the titer on TE 671 (human) cells [3] of the same substance?
A: 150 c.f.u./ml

Q: Which titer on NIH 3T3/MCF 247 cells (polytropic receptor blocked) [2] does the source give for “S/M Leader (SL3-2 envelope with the signal peptide of MCF 247)” here?
A: 12.5 cfu/mL

Q: And the titer on NIH 3T3 cells [2]?
A: 200000 cfu/mL

Q: And the titer on Psi-2 cells (ecotropic receptor blocked) [2]?
A: 100000 cfu/mL

Q: What about the titer on HeLa cells [3] of the same substance?
A: 0 cfu/mL

Q: And the titer on TE 671 cells [3]?
A: 5 cfu/mL

Q: Which results are given for “S/M VR3 (SL3-2 envelope with the VR3 region of MCF 247) (from UniProt P03388 33-640)”?
A: titer on NIH 3T3/MCF 247 cells (polytropic receptor blocked) [2]: 2.5 cfu/mL; titer on NIH 3T3 cells [2]: 500000 cfu/mL; titer on Psi-2 cells (ecotropic receptor blocked) [2]: 300000 cfu/mL; titer on HeLa cells [3]: 250 cfu/mL; titer on TE 671 cells [3]: 22500 cfu/mL

Q: What does the source list for “S/M VRA (SL3-2 envelope with the VRA segment of MCF 247)”?
A: titer on NIH 3T3/MCF 247 cells (polytropic receptor blocked) [2]: 2.5 cfu/mL; titer on NIH 3T3 cells [2]: 225000 cfu/mL; titer on Psi-2 cells (ecotropic receptor blocked) [2]: 400000 cfu/mL; titer on HeLa cells [3]: 0 cfu/mL; titer on TE 671 cells [3]: 2.5 cfu/mL

Q: What does the source list for “S/M VRB (SL3-2 envelope with the VRB segment of MCF 247)”?
A: titer on NIH 3T3/MCF 247 cells (polytropic receptor blocked) [2]: 2.5 cfu/mL; titer on NIH 3T3 cells [2]: 3e+06 cfu/mL; titer on Psi-2 cells (ecotropic receptor blocked) [2]: 500000 cfu/mL; titer on HeLa cells [3]: 0 cfu/mL; titer on TE 671 cells [3]: 5 cfu/mL

Q: “SL3-2 envelope mutant CR (C at 212, R at 213) (from UniProt P03388 33-640)” was tested. Which titer on NIH 3T3 (murine) cells [2] did it give?
A: 2.4e+06 c.f.u./ml

Q: What about the titer on TE 671 (human) cells [3] of the same substance?
A: 12 c.f.u./ml

Q: “SL3-2 envelope mutant GA (G at 212, A at 213) (from UniProt P03388 33-640)” was tested. Which titer on NIH 3T3 (murine) cells [2] did it give?
A: 5.6e+06 c.f.u./ml

Q: And the titer on TE 671 (human) cells [3]?
A: 2800 c.f.u./ml

Q: With “SL3-2 envelope mutant GI (G at 212, I at 213) (from UniProt P03388 33-640)” as the substance, how does the Titer (cfu/mL) on NIH 3T3 cells [2] read?
A: 2e+06 cfu/mL

Q: What about the titer on NIH 3T3 (murine) cells [2] of the same substance?
A: 7.6e+06 c.f.u./ml

Q: What about the Titer (cfu/mL) on TE 671 cells [3] of the same substance?
A: 450000 cfu/mL

Q: What about the Titer on 293 cells [3] of the same substance?
A: 200000 c.f.u./ml

Q: What about the Titer on Human HeLa cells [3] of the same substance?
A: 130 c.f.u./ml

Q: And the Titer on TE 671 cells transfected with MCF 247 (receptor blocked by MCF 247 envelope) [3]?
A: 6000 c.f.u./ml

Q: And the fold decrease of titer on TE 671 cells expressing MCF 247 envelope [3]?
A: 100 fold

Q: What about the fold rise of titer on human cells against wild type SL3-2 [3] of the same substance?
A: 100000 fold

Q: And the titer on TE 671 (human) cells [3]?
A: 440000 c.f.u./ml

Q: With “SL3-2 envelope mutant GK (G at 212, K at 213) (from UniProt P03388 33-640)” as the substance, how does the titer on NIH 3T3 (murine) cells [2] read?
A: 5.2e+06 c.f.u./ml

Q: And the titer on TE 671 (human) cells [3]?
A: 5600 c.f.u./ml

Q: “SL3-2 envelope mutant GT (G at 212, T at 213) (from UniProt P03388 33-640)” was tested. Which Titer (cfu/mL) on NIH 3T3 cells [2] did it give?
A: 2e+06 cfu/mL

Q: What about the titer on NIH 3T3 (murine) cells [2] of the same substance?
A: 8.4e+06 c.f.u./ml

Q: What about the Titer (cfu/mL) on TE 671 cells [3] of the same substance?
A: 1500 cfu/mL

Q: And the titer on TE 671 (human) cells [3]?
A: 520 c.f.u./ml

Q: How did the titer on NIH 3T3 (murine) cells [2] turn out when “SL3-2 envelope mutant GV (G at 212, V at 213) (from UniProt P03388 33-640)” was run?
A: 3.6e+06 c.f.u./ml

Q: And the titer on TE 671 (human) cells [3]?
A: 320000 c.f.u./ml

Q: For “SL3-2 envelope mutant LA (L at 212, A at 213) (from UniProt P03388 33-640)”, which titer on NIH 3T3 (murine) cells [2] is on record?
A: 1.1e+07 c.f.u./ml

Q: What about the titer on TE 671 (human) cells [3] of the same substance?
A: 5200 c.f.u./ml

Q: “SL3-2 envelope mutant LI (L at 212, I at 213) (from UniProt P03388 33-640)” was tested. Which titer on NIH 3T3 (murine) cells [2] did it give?
A: 2.4e+06 c.f.u./ml

Q: And the Titer on 293 cells [3]?
A: 12000 c.f.u./ml

Q: And the Titer on TE 671 cells transfected with MCF 247 (receptor blocked by MCF 247 envelope) [3]?
A: 68 c.f.u./ml

Q: And the fold decrease of titer on TE 671 cells expressing MCF 247 envelope [3]?
A: 100 fold

Q: And the titer on TE 671 (human) cells [3]?
A: 1200 c.f.u./ml

Q: Which titer on NIH 3T3 (murine) cells [2] does the source give for “SL3-2 envelope mutant LV (L at 212, V at 213) (from UniProt P03388 33-640)” here?
A: 3.6e+06 c.f.u./ml

Q: What about the titer on TE 671 (human) cells [3] of the same substance?
A: 16000 c.f.u./ml

Q: For “SL3-2 envelope mutant MA (M at 212, A at 213) (from UniProt P03388 33-640)”, which titer on NIH 3T3 (murine) cells [2] is on record?
A: 9.6e+06 c.f.u./ml

Q: What about the titer on TE 671 (human) cells [3] of the same substance?
A: 250000 c.f.u./ml

Q: With “SL3-2 envelope mutant MI (M at 212, I at 213) (from UniProt P03388 33-640)” as the substance, how does the titer on NIH 3T3 (murine) cells [2] read?
A: 240000 c.f.u./ml

Q: And the titer on TE 671 (human) cells [3]?
A: 28000 c.f.u./ml

Q: What does the source list for “SL3-2 envelope mutant MV (M at 212, V at 213) (from UniProt P03388 33-640)”?
A: titer on NIH 3T3 (murine) cells [2]: 9.6e+06 c.f.u./ml; Titer on 293 cells [3]: 240000 c.f.u./ml; Titer on Human HeLa cells [3]: 100 c.f.u./ml; Titer on TE 671 cells transfected with MCF 247 (receptor blocked by MCF 247 envelope) [3]: 16000 c.f.u./ml; fold decrease of titer on TE 671 cells expressing MCF 247 envelope [3]: 100 fold; fold rise of titer on human cells against the GI mutant [3]: > 10 fold; titer on TE 671 (human) cells [3]: 7.2e+06 c.f.u./ml

Q: Which results are given for “SL3-2 envelope mutant RA (R at 212, A at 213) (from UniProt P03388 33-640)”?
A: titer on NIH 3T3 (murine) cells [2]: 1e+07 c.f.u./ml; titer on TE 671 (human) cells [3]: 4 c.f.u./ml

Q: Which Titer (cfu/mL) on NIH 3T3 cells [2] does the source give for “SL3-2 envelope mutant RI (R at 212, I at 213) (from UniProt P03388 33-640)” here?
A: 3.25e+06 cfu/mL

Q: And the titer on NIH 3T3 (murine) cells [2]?
A: 6.4e+06 c.f.u./ml

Q: What about the Titer (cfu/mL) on TE 671 cells [3] of the same substance?
A: 22.5 cfu/mL

Q: And the titer on TE 671 (human) cells [3]?
A: 24 c.f.u./ml

Q: For “SL3-2 envelope polypeptide (wild type envelope protein of Murine Leukaemia Virus SL3-2) (from UniProt P03388 33-640)”, which Titer (cfu/mL) on TE 671 cells [3] is on record?
A: 4.75 cfu/mL

Q: And the Titer on 293 cells [3]?
A: < 2 c.f.u./ml

Q: And the Titer on Human HeLa cells [3]?
A: < 2 c.f.u./ml

Q: And the titer on HeLa cells [3]?
A: 0 cfu/mL

Q: And the titer on TE 671 (human) cells [3]?
A: < 4 c.f.u./ml

Q: What about the titer on TE 671 cells [3] of the same substance?
A: < 2 c.f.u./ml
